# Publication PMC10237660
# Target: C-terminal polyP binding domain of the E. coli exopolyphosphatase (EcPPXc) (E. coli strain K12)
# Assay: SEC; analytical SE-UPLC, BEH200 4.6 x 300 mm column (Waters), running buffer 10 mM NaH2PO4, 400 mM (NH4)2SO4, pH 6.2; retention time compared with 158 kDa and 44 kDa standards
substance,measurement,value
C-terminal polyP binding domain of the E. coli exopolyphosphatase (EcPPXc) (domain or fragment),stoichiometry N,2
